# Measured values taken from patent US20060223140.
# T1: peptide-T
# T1 chain: ASTTTNYT
# T2: PAMP-12
# T2 chain: FRKKWNKWALSR
# B1: recombinant endo-α-N-acetylgalactosaminidase derived from Bifidobacterium longum JCM1217 (protein)
# chain: MKKKKTISAALATALALTCMGSGGGTAFAVPLSDADLQTLASQIQQINDTSDSATASETPSAQADAVEGWTIDSNIAQGGEILEMANGWLHLKSTASNGNAAANPSSSNNWPAVAVWGTDYDFSKAGSFHATIKSPQEGSANRFGFYLGYNDPGSGLFIGYDSGGWFWQTYTGGGSGSWYSGARIAAPSANEEHDIRVSWTDAKVATLTVDGQKAFDVDYSAMTNLSNKLAIKAGSWKELNEVTDVYIKDFPEVVEAAKHAVSGKVVDAGGAAIEGATVRLDKTKVKTGADGTFSFADIEEGEHTLSIAKEGYEDVSQQVTVSGADLAIDPITLNKTVQVASETLKTKKMEVQIKKNFPSVLQYTMTDGKVMYGQSKDVRTVEINGTNIELGDDDVTFKKVSDTEATYTLKVKDEAKKIDAVITVQITVKANQLHLNVTKIKNNLSEGIPEGNGVEENAIQTLSFPNQSLVSVRSSQENAQFTGARMSSNTQKPGDTNFAVTEDTNVTDSDYTYGFISGAGLSAGLWSNSEHDGTYVAAPVRGGSQNTRVYATTQQTGDATSLGLASAPWYYHRTVTDSKGKKYTVAETALPQMAVAIAGDENEDGAVNWQDGAIAYRDIMNNPYKSEEVPELVAWRIAMNFGSQAQNPFLTTLDNVKKVALNTDGLGQSVLLKGYGNEGHDSGHPDYGDIGQRLGGADDMNTMMEEGSKYGARFGVHVNASEMYPEAKAFSEDMVRRNSAGGLSYGWNWLDQGVGIDGIYDLASGSRVSRFADLSKEVGDNMDFIYLDVWGNLTSSGSEDSWETRKMSKMINDNGWRMTTEWGSGNEYDSTFQHWAADLTYGGYTSKGENSEVMRFLRNHQKDSWVGDYPQYGGAANAPLLGGYNMKDFEGWQGRNDYAAYIKNLYTHDVSTKFIQHFKVTRWVNNPLLTADNGNAAAVSDPNTNNGNEQITLKDSNGNVVVVSRGSNDTSSAAYRQRTITFNGVKVASGVVSAGDGSATGDESYLLPWMWDSFTGKLVKDSEQKLYHWNTKGGTTTWTLPDSWKNLSSVKVYQLTDQGKTNEQTVAVSGGKVTLTADAETPYVVYKGEAKQIQVNWSEGMHVVDAGFNGGSNTLTDNWTVSGSGKAEVEGDNNAMLRLTGKVDVSQRLTDLKAGQKYALYVGVDNRSTGDASVTVTSGGKVLATNSTGKSIAKNYIKAYGHNTNSNTENGSSYFQNMYVFFTAPENGDATVTLSHKSTDGAHTYFDDVRIVENQYSGITYEKDGTLKSLTNGFENNAQGIWPFVVSGSEGVEDNRIHLSELHAPFTRAGWDVKKMDDVLDGTWSVKVNGLTQKGTLVYQTIPQNVKFEAGAKYKVSFDYQSGSDDIYAIAVGQGEYSAGSVKLTNLKKALGETGKAEFELTGGVNGDSWFGIYSTATAPDLQGSTGNAQDFGGYKDFVLDNLKIERIESQTRTKAEAQDKVKEIRGKYDSKRAELSDAAWQQYQDTLVKARVLINKNGATAEDFTKAYDILVALDEYMKTAPGNESSDKYDVAADGSDELGGYTVATGSEEPTAGLPSEGPADLAQDGNDSTHWHTSWSENAVGNGTAWYQFNLNEPTTINGLRYLPRSGGMNANGKIKGYKITLTLADGTTKDVVTDAEFSTTTMWQKASFDAVENVTAVRSTVLSSAGQSDSQANKFASAAELRLTTDREVEEETVAPDKTDLNDTIAKANGLKESDYTAESWTALVKAREAAQAVADNDKATAYDVALALTNLESAIAGLEKTGEEPGPGPVEVNKTDLQTAVNKASKLEKADYTTNSWEAFAEALKAAQQVLDNKNATQQDVDTALSALQDAISKLEAATEPKPNPEPGVVDKAALNATINKAAAINLGLYTDDSANALRAALKKAREVSDNSNATQKQVDAAREALEKAIAALVKRPAAKGDGNVVSNTGSDVATIALAGLLLAGAGAAIAYRRNREQL
# Columns and labels:
# peptide-T = target: T1, peptide-T
# PAMP-12 = target: T2, PAMP-12
protein,measurement,setting,value
B1,transglycosylation activity (HPLC product peak; confirmed by MALDI-TOF-MS),peptide-T,"it was demonstrated that the sugar chain was transferred to each peptide because peaks of transglycosylation products (""product"" portion in each Figure) were observed"
same,transglycosylation activity (HPLC product peak; confirmed by MALDI-TOF-MS),PAMP-12,"it was demonstrated that the sugar chain was transferred to each peptide because peaks of transglycosylation products (""product"" portion in each Figure) were observed"
same,transglycosylation activity (HPLC product peak; confirmed by MALDI-TOF-MS),bradykinin,"it was demonstrated that the sugar chain was transferred to each peptide because peaks of transglycosylation products (""product"" portion in each Figure) were observed"
